Entries after “also recorded” stand apart in the source; their conditions may differ.
Legend:
[1] = target: T1, CD39 expressed by Ramos human lymphoma cells (Homo sapiens, UniProt P49961); test: Inhibition of the enzymatic activity of cellular CD39, Ramos cells (Cell Titer Glo); type: cell-based
T1 construct: host or cells: Ramos human lymphoma cells
T1 sequence (P49961 1-510): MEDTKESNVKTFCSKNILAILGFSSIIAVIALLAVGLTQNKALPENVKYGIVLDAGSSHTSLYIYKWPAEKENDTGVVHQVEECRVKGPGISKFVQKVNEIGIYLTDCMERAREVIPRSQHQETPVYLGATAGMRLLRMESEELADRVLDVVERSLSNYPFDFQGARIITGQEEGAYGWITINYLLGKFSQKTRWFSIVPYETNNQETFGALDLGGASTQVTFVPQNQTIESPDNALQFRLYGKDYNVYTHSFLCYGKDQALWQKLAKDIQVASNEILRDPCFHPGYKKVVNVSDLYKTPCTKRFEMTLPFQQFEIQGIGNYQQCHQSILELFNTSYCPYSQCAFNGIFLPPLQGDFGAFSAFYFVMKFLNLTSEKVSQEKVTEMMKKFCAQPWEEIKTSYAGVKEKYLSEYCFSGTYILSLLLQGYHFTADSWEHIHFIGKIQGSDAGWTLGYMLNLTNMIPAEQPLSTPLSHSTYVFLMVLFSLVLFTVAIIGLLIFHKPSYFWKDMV
Protocol: (§1) The inhibition of the CD39 enzymatic activity in CD39-expressing cells by antibodies was evaluated using Cell Titer Glo™ (Promega, reference G7571) that allows assessment of ATP hydrolysis through use of a reagent that generates a luminescent signal proportional to the amount of ATP present. The assay was thus designed to permit assessment of the inhibition of ATP hydrolyzed by CD39 in the cell culture supernatant. Briefly, 5×10^4 Ramos human lymphoma cells, 5×10^3 human CD39-, cynomolgus CD39- and mouse CD39-expressing CHO cells, were incubated 1 hour at 37° C. with anti-CD39 antibodies from 30 μg/ml to 5×10^−4 μg/ml. Cells were then incubated with 20 μM ATP for 1 additional hour at 37° C. Plates were centrifuged for 2 min at 400 g and 50 μl cell supernatant are transferred in a luminescence microplate (white wells). 50 μl CellTiter-Glo® Reagent (CTG) was added to the supernatant and emitted light was quantified after a 5 min incubation in the dark using a Enspire™ luminometer. Anti-CD39 antibody efficacy was determined by comparing emitted light in presence of antibody with ATP alone (maximal light emission) and ATP together with cells (minimal light emission).

[2] = target: T2, Human CD39-L3, also known as NTPDase3 or ENTPD3 (Homo sapiens, UniProt O75355); test: ELISA titration on CD39-L3; type: binding; conditions: coated recombinant protein, OD=450
T2 sequence (O75355 1-529): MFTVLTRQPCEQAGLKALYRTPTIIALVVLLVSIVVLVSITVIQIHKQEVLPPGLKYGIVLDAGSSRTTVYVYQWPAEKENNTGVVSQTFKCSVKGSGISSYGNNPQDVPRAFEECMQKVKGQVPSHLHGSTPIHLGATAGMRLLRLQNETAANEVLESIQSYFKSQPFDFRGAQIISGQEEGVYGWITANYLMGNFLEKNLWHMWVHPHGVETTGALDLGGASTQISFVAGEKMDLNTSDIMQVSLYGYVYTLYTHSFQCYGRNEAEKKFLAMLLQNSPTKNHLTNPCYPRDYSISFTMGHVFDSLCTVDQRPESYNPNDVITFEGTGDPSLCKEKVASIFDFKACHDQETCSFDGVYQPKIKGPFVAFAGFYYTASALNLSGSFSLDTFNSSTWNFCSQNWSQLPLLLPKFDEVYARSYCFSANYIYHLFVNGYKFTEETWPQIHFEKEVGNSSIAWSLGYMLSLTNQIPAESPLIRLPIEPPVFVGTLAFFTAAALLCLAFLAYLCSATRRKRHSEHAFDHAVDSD
Protocol: (§2) Wells were washed in TBS Tween 20, and further saturated 2H at RT in TBS Blocking buffer. Dose range concentration of primary antibody was incubated in TBS blocking buffer for 2 h at RT. Wells were washed in TBS Tween 20. […] Optical density was measured on Enspire™ at OD=450.

[3] = target: T3, Human CD39-L4, also known as NTPDase5 or ENTPD5 (Homo sapiens, UniProt O75356); test: ELISA titration on CD39-L4; type: binding; conditions: coated recombinant protein, OD=450
T3 sequence (O75356 25-428): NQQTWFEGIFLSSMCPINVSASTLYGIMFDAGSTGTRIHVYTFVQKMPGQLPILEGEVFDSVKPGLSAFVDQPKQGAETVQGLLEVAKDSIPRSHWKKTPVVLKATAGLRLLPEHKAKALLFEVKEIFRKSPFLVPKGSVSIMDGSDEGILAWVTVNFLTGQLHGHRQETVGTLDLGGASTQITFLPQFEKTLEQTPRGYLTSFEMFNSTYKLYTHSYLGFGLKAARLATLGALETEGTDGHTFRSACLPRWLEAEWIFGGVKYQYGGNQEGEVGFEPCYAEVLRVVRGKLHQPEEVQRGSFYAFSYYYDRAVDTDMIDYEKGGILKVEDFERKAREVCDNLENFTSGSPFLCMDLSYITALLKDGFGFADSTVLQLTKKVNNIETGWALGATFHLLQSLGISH
Protocol: as §2

[4] = target: T4, human CD39 (Homo sapiens, UniProt P49961); test: ELISA titration on human CD39; type: binding; conditions: coated recombinant protein, OD=450
T4 sequence (P49961 1-510): T1 sequence (P49961 1-510)
Protocol: as §2

[5] = target: T5, cell-membrane bound CD39 (Homo sapiens, UniProt P49961); test: Inhibition of the enzymatic activity of cellular CD39 (cells not specified); type: cell-based
T5 sequence (P49961 1-510): T1 sequence (P49961 1-510)
Protocol: as §1, with “emission). […]” for “emission).”

B1: I-394: anti-CD39 antibody, VH SEQ ID NO: 3, VL SEQ ID NO: 4; heavy and light chains SEQ ID NOS: 37 and 38 (antibody)
heavy: EVQLQQSGPELVKPGASVKMSCKASGYTFTDYNMHWVKQSHGRTLEWIGYIVPLNGGSTFNQKFKGRATLTVNTSSRTAYMELRSLTSEDSAAYYCARGGTRFAYWGQGTLVTVSAASTKGPSVFPLAPSSKSTSGGTAALGCLVKDYFPEPVTVSWNSGALTSGVHTFPAVLQSSGLYSLSSVVTVPSSSLGTQTYICNVNHKPSNTKVDKRVEPKSCDKTHTCPPCPAPEAEGAPSVFLFPPKPKDTLMISRTPEVTCVVVDVSHEDPEVKFNWYVDGVEVHNAKTKPREEQYNSTYRVVSVLTVLHQDWLNGKEYKCKVSNKALPSSIEKTISKAKGQPREPQVYTLPPSREEMTKNQVSLTCLVKGFYPSDIAVEWESNGQPENNYKTTPPVLDSDGSFFLYSKLTVDKSRWQQGNVFSCSVMHEALHNHYTQKSLSLSPGK
light: DIVLTQSPASLAVSLGQRATISCRASESVDNFGVSFMYWFQQKPGQPPNLLIYGASNQGSGVPARFRGSGSGTDFSLNIHPMEADDTAMYFCQQTKEVPYTFGGGTKLEIKRTVAAPSVFIFPPSDEQLKSGTASVVCLLNNFYPREAKVQWKVDNALQSGNSQESVTEQDSKDSTYSLSSTLTLSKADYEKHKVYACEVTHQGLSSPVTKSFNRGEC
modifications: Chimeric homo sapiens mus musculus
maximum inhibition achieved, cellular CD39 ([1]; Ramos cells, 20 μM ATP): 81.6%
blocking CD39 enzymatic activity in tumor (Ramos) cells ([1]; result in words): highly potent at blocking CD39 enzymatic activity
binding to CD39-L3 in ELISA [2]: not to any of the human isoforms
binding to CD39-L4 in ELISA [3]: not to any of the human isoforms
binding to human CD39 in ELISA [4]: bound; also recorded: binds to human CD39
potency and maximal inhibition of cellular CD39, comparison between antibodies (FIG. 2A) ([5]; compared with BY40): greater potency and maximal inhibition of cellular CD39 compared to BY40; also recorded: greater potency at all concentrations as well as greater maximal inhibition of cellular CD39 compared to BY40
inhibition of cell-membrane bound (cellular) CD39 ATPase activity ([5]; result in words): inhibit cell-membrane bound CD39

From US20190218304A1, “POTENTIATING THE EFFECT OF ATP RELEASE” (INNATE PHARMA, priority 2017, published 2019)
